Experimental findings from paper PMC8693953 (Molecular Biology of the Cell, 2021) are described below.

The assay has as its target proline-rich tyrosine kinase 2 (Pyk2) (UniProt Q14289 1-1009). The assay is described as follows: pull-down.

Chain of proline-rich tyrosine kinase 2 (Pyk2) (Q14289 whole entry): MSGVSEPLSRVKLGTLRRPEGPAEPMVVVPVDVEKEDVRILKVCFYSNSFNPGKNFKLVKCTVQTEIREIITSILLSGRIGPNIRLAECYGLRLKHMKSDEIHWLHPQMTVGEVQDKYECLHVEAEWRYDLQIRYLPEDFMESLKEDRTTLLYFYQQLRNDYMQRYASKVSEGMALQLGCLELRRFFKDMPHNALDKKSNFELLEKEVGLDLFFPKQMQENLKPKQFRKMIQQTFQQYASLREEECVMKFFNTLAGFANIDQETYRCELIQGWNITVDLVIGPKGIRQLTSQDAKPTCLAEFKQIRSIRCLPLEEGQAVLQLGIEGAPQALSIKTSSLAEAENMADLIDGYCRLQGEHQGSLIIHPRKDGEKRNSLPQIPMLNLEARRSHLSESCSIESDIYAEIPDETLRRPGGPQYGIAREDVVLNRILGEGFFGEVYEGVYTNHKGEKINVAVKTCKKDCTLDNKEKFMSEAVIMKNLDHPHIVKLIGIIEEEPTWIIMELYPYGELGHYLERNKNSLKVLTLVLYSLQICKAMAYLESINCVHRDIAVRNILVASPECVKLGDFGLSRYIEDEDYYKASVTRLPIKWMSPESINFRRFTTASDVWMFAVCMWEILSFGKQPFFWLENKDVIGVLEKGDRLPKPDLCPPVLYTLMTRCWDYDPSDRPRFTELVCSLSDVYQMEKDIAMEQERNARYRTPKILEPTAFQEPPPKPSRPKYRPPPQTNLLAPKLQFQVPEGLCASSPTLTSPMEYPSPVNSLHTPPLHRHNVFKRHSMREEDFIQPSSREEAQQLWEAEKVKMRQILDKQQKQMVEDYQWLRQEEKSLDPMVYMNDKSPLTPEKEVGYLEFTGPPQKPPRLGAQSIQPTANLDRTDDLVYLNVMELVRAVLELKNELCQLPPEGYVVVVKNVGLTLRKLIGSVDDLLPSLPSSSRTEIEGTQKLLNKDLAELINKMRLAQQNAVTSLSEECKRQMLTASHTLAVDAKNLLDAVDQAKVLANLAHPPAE

B1: GST-CrkII (recombinant chicken CrkII, wild type) (natural protein, UniProt Q04929 1-305, looked up)
chain: MAGQFDSEDRGSWYWGRLSRGDAVSLLQGQRHGTFLVRDSGSIPGDFVLSVSESSRVSHYIVNSLGPAGGRRAGGEGPGAPGLNPTRFRIGDQEFDSLPSLLEFYKIHYLDTTTLIEPVSRSRQNSGVILRQEEVEYVRALFDFNGNDDEDLPFKKGDILKIRDKPEEQWWNAEDMDGKRGMIPVPYVEKCRPSSASVSTLTGGNQDSSHPQPLGGPEPGPYAQPSINTPLPNLQNGPFYARVIQKRVPNAYDKTALALEVGELVKVTKINMSGQWEGECNGKRGHFPFTHVRLLDQQNPDEDFS
In the case of B1, the affinity, expressed as Kd, was 150 ± 30 nM.

B2: GST-CrkCSH3 (CrkII W276K, mutation at the C-terminal SH3 domain) (natural protein, chicken, UniProt Q04929 1-305, looked up)
chain: MAGQFDSEDRGSWYWGRLSRGDAVSLLQGQRHGTFLVRDSGSIPGDFVLSVSESSRVSHYIVNSLGPAGGRRAGGEGPGAPGLNPTRFRIGDQEFDSLPSLLEFYKIHYLDTTTLIEPVSRSRQNSGVILRQEEVEYVRALFDFNGNDDEDLPFKKGDILKIRDKPEEQWWNAEDMDGKRGMIPVPYVEKCRPSSASVSTLTGGNQDSSHPQPLGGPEPGPYAQPSINTPLPNLQNGPFYARVIQKRVPNAYDKTALALEVGELVKVTKINMSGQKEGECNGKRGHFPFTHVRLLDQQNPDEDFS
B2 returned a dissociation constant Kd of 134 ± 34 nM.

B3: GST-CrkSH2 (CrkII R38K, mutation at the N-terminal SH2 domain) (natural protein, chicken, UniProt Q04929 1-305, looked up)
chain: MAGQFDSEDRGSWYWGRLSRGDAVSLLQGQRHGTFLVKDSGSIPGDFVLSVSESSRVSHYIVNSLGPAGGRRAGGEGPGAPGLNPTRFRIGDQEFDSLPSLLEFYKIHYLDTTTLIEPVSRSRQNSGVILRQEEVEYVRALFDFNGNDDEDLPFKKGDILKIRDKPEEQWWNAEDMDGKRGMIPVPYVEKCRPSSASVSTLTGGNQDSSHPQPLGGPEPGPYAQPSINTPLPNLQNGPFYARVIQKRVPNAYDKTALALEVGELVKVTKINMSGQWEGECNGKRGHFPFTHVRLLDQQNPDEDFS
Turning to B3, the Kd turned out to be 508 ± 158 nM.
